Measured values reported in paper PMC10148134.

Legend:
ovalbumin (OVA) = ovalbumin (OVA) (UniProt P01012); test: BLI; 10 μg/mL proteins (OVA, Bm-SA) coupled on AR2G or SA sensors; various concentrations of βγ-CAT as analyte, PBS as buffer; association 300 s, dissociation 180 s; Octet R2; 1:1 model
[1] = target: toad B. maxima serum albumin (Bm-SA) (Bombina maxima) (UniProt Q3T478); test: as above
Chain of UniProt Q3T478 (Q3T478 23-607): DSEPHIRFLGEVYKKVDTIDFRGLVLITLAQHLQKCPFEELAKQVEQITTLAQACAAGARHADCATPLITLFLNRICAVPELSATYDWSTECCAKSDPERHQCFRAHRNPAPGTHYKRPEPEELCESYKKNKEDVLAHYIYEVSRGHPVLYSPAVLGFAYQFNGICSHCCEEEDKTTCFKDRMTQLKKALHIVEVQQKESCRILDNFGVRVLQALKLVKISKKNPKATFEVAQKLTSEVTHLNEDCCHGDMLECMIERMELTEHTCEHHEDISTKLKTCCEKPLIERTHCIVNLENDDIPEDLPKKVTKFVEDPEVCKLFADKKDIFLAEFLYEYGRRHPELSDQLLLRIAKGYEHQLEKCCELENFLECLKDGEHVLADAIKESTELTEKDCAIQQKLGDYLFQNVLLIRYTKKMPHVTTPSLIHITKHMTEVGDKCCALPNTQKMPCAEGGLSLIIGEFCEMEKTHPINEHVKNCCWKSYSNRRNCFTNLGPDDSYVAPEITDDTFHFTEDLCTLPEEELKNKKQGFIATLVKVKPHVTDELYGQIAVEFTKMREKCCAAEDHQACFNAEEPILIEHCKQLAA

Chain of UniProt P01012 (P01012 whole entry): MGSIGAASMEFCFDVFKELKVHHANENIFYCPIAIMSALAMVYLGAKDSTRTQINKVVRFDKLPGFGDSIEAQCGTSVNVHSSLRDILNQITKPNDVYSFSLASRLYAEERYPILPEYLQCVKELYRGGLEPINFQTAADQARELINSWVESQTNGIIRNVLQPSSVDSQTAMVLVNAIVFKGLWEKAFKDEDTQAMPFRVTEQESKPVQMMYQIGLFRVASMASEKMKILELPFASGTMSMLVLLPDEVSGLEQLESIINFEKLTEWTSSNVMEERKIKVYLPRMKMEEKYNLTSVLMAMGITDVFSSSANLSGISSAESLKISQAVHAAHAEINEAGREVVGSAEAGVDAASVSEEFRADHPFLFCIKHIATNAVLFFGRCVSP

βγ-CAT, pore-forming protein (PFP) and trefoil factor complex of BmALP1 and BmTFF3 from toad Bombina maxima
Kd (ovalbumin (OVA)): 23.3 nM | Kd [1]: 24.7 nM
